Usually Kd stands for a measure of binding affinity in units of concentration.

In assay [1] the target is TIR1 (Arabidopsis thaliana) (UniProt Q570C0). Put plainly: BLI. The note with it: cited from earlier work.
Assay [2] shares this target. The assay can be described thus: BLI. Conditions: cited from earlier work. This is another data set of the same source.
The target of the next assay is T1, TIR1 (Arabidopsis thaliana, UniProt Q570C0).
T1 construct: with IAA7
T1 sequence (Q570C0 1-594): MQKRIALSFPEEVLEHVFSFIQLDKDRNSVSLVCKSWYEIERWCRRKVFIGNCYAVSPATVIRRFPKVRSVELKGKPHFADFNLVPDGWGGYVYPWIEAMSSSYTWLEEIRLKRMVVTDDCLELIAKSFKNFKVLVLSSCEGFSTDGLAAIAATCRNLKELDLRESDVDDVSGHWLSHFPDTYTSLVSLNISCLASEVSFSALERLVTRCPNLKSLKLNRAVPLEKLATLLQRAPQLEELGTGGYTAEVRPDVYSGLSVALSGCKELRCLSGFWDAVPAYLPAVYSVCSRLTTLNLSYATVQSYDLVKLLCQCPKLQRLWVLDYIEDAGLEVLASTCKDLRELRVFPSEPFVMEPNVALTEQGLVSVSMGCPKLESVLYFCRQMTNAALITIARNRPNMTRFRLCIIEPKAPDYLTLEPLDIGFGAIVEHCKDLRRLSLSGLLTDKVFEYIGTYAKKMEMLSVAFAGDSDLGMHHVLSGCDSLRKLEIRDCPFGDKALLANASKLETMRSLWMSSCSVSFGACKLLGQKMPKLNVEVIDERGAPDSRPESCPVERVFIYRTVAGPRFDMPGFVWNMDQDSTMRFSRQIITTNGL
T1 sequence (Q38825 1-243 partner): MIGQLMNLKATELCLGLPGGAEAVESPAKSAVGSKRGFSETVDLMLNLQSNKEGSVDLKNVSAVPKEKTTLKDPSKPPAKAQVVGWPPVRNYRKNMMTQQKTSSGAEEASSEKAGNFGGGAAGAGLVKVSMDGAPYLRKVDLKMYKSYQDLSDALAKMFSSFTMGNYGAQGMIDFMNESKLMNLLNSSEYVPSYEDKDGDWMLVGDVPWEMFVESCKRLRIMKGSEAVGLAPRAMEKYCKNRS
The assay can be described thus: synthetic yeast system, TIR1-dependent degradation of YFP-IAA7 and YFP-IAA17 by flow cytometry. Type of assay: cell-based. (A flow cytometer gives signals particle by particle.)

The next assay concerns the target T2, IAA7 (Arabidopsis thaliana, UniProt Q38825).
T2 chain: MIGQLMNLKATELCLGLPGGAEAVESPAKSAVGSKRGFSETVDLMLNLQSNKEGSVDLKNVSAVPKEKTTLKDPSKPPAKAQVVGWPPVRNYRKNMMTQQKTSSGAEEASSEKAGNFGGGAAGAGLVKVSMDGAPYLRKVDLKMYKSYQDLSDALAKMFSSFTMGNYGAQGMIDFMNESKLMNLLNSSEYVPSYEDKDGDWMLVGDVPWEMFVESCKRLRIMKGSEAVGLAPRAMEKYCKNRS
The assay can be described thus: BLI. (In general: In BLI a coated tip is dipped into the sample, and binding shifts an interference pattern.)

As to IAA7 (from UniProt Q38825), the Kd in assay [1] is 30 nM; in assay [2], 20000 nM. Consider `O=C(O)Cc1c[nH]c2ccccc12` [IAA, indole-3-acetic acid], for which, on TIR1, the “synthetic yeast system, TIR1-dependent degradation of YFP-IAA7 and YFP-IAA17 by” value was “signals from YFP-IAA7 and YFP-IAA17 decreased rapidly upon addition of IAA”.

B1: TIR1 (protein)
chain: MQKRIALSFPEEVLEHVFSFIQLDKDRNSVSLVCKSWYEIERWCRRKVFIGNCYAVSPATVIRRFPKVRSVELKGKPHFADFNLVPDGWGGYVYPWIEAMSSSYTWLEEIRLKRMVVTDDCLELIAKSFKNFKVLVLSSCEGFSTDGLAAIAATCRNLKELDLRESDVDDVSGHWLSHFPDTYTSLVSLNISCLASEVSFSALERLVTRCPNLKSLKLNRAVPLEKLATLLQRAPQLEELGTGGYTAEVRPDVYSGLSVALSGCKELRCLSGFWDAVPAYLPAVYSVCSRLTTLNLSYATVQSYDLVKLLCQCPKLQRLWVLDYIEDAGLEVLASTCKDLRELRVFPSEPFVMEPNVALTEQGLVSVSMGCPKLESVLYFCRQMTNAALITIARNRPNMTRFRLCIIEPKAPDYLTLEPLDIGFGAIVEHCKDLRRLSLSGLLTDKVFEYIGTYAKKMEMLSVAFAGDSDLGMHHVLSGCDSLRKLEIRDCPFGDKALLANASKLETMRSLWMSSCSVSFGACKLLGQKMPKLNVEVIDERGAPDSRPESCPVERVFIYRTVAGPRFDMPGFVWNMDQDSTMRFSRQIITTNGL
modifications: oxIAA (saturating)
B1 came in with a Kd with IAA7 of 200 nM.

The values are drawn from article PMC12344411, “Cytosolic- and membrane-localized oxidized indole-3-acetic acid formation regulates developmental auxin transients” (Plant physiology, 2025).
